From patent US20180355060A1 (published 2018)
Residue numbers refer to the chain shown, from its start.

Columns and labels:
cynomolgus monkey TG2 [1] = biological target: T1, cynomolgus monkey TG2 (cynomolgus monkey, UniProt A0A2K5VXI8 2-687); assay: SPR (Biacore T200), antibody captured on anti-human IgG1 Fc chip, cynomolgus TG2 injected; +Ca2+
T1 construct: Recombinant, from Trenzyme; also called cynomogulus monkey TG2; cyano TG2
T1 sequence: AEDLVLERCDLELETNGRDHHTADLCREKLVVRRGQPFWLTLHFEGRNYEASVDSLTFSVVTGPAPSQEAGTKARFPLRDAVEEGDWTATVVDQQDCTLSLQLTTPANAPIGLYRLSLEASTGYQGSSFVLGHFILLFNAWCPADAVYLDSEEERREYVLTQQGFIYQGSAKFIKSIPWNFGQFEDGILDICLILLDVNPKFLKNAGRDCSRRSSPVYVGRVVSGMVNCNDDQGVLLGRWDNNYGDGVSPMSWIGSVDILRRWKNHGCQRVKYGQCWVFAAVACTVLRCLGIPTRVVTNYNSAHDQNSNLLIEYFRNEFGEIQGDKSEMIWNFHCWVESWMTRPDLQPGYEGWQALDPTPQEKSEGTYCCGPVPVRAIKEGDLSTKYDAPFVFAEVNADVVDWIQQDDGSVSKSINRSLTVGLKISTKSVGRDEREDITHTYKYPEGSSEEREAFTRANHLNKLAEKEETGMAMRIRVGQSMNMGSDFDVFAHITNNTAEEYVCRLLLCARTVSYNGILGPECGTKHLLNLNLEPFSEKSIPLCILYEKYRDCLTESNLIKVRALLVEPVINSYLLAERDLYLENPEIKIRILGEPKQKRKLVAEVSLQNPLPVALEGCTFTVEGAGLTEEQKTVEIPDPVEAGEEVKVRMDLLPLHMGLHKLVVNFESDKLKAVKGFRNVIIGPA
Experimental: (§1) The method employed to determine the affinity of the anti-TG2 antibodies involved the capture of the chimeric or humanised antibodies on a MAH coated CM5 chip, followed by the injection of a series of TG2 samples in running buffer. The running buffer was 1× HBS-P+ containing 1 mM CaCl₂, or 1×HBS-EP+ for calcium-free experiments. Antibody capture was carried out for a contact time of 120 seconds at a flow rate of 10 μl/min resulting in the capture of approximately 40-80 RU. TG2 was injected over the immobilised antibody at concentrations ranging from 25 nM to 400 nM with a contact time up to 600 seconds at a flow rate of 30 μl/min. Dissociation of TG2 was typically measured for up to 5400 seconds (1.5 hours). Regeneration of the chip was then performed using 3 M MgCl₂, for a contact time of 60 seconds at a flow rate of […], followed by a 300s stabilisation period before the next sample. For each of human and cynomolgus monkey TG2, at least 5 injections at a variety of concentrations were performed in at least two separate experiments.
(§2) Kinetic data were exported from the Biacore T200 Evaluation Software and analysed using GraphPad Prism, where the association phases and dissociation phases were analysed separately using a one phase association model and one-phase exponential decay model respectively. Association rates (kₒₙ) were calculated for each curve individually, and dissociation rates (koff) values from the long dissociation phase data collected. Where koff values were calculated to be <1×10⁻⁵ s⁻¹, values were set at 1×10⁻⁵ for analysis, as rates slower than this could not be estimated accurately. Values for kₒₙ and koff are presented in the tables below as the mean of the individual calculated values for each antibody for each TG2 species from multiple concentrations +/−1 standard deviation. KD values are calculated as mean koff/mean kₒₙ.

[2] = biological target: T2, human transglutaminase type 2 (TG2) (human, UniProt P21980 1-687); assay: SPR (Biacore T200), antibody captured on anti-human IgG1 Fc chip, human TG2 injected; -Ca2+
T2 construct: Recombinant human TG2 bought from Zedira (cat. T002) in ELISA, SPR and enzyme assays; also called hTG2; rhTG2
T2 sequence: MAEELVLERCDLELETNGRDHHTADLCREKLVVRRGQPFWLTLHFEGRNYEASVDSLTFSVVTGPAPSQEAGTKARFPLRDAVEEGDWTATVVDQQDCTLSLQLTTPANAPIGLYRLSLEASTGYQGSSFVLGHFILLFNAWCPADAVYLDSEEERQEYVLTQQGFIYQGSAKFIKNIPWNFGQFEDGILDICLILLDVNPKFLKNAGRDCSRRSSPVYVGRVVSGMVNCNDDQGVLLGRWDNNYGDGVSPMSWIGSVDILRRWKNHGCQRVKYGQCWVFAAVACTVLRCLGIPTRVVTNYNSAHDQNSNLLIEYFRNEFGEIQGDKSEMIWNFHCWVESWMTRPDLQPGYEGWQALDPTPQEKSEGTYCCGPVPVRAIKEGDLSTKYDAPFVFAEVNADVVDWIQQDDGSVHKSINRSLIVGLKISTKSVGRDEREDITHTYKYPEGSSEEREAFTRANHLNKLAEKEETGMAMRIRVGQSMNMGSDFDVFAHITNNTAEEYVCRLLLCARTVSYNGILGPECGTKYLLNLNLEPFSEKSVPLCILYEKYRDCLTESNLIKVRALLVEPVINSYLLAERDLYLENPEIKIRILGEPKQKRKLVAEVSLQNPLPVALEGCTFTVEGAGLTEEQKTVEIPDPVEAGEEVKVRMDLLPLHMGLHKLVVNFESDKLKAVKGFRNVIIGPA
Experimental: (§3) FIG. 45: Human TG2 binding to cAB003 immobilised antibody by Biacore. The association phases of human TG2 injections over the cAB003-coated biosensor at 25, 50, 100 and 200 nM, including in duplicate at 50 nM, are shown on the left. From the same experiment, two long dissociation phases were collected, as shown on the right.
as §1, with “For each of human and cynomolgus monkey TG2, at least 5 injections at a variety of concentrations were performed in at least two separate experiments.” left out
as §2

[3] = biological target: T2, human transglutaminase type 2 (TG2); assay: SPR (Biacore T200), antibody captured on anti-human IgG1 Fc chip, human TG2 injected; +Ca2+
Experimental: as §3
as §1, with “For each of human and cynomolgus monkey TG2, at least 5 injections at a variety of concentrations were performed in at least two separate experiments.” left out
as §2

cynomolgus monkey TG2 [4] = biological target: T1, cynomolgus monkey TG2; assay: SPR (Biacore T200), antibody captured on anti-human IgG1 Fc chip, cynomolgus TG2 injected; -Ca2+
Experimental: as §1, §2

rat TG2 [5] = biological target: T3, rat TG2 (rat, UniProt Q9WVJ6 1-686); assay: western blot and ELISA
T3 sequence: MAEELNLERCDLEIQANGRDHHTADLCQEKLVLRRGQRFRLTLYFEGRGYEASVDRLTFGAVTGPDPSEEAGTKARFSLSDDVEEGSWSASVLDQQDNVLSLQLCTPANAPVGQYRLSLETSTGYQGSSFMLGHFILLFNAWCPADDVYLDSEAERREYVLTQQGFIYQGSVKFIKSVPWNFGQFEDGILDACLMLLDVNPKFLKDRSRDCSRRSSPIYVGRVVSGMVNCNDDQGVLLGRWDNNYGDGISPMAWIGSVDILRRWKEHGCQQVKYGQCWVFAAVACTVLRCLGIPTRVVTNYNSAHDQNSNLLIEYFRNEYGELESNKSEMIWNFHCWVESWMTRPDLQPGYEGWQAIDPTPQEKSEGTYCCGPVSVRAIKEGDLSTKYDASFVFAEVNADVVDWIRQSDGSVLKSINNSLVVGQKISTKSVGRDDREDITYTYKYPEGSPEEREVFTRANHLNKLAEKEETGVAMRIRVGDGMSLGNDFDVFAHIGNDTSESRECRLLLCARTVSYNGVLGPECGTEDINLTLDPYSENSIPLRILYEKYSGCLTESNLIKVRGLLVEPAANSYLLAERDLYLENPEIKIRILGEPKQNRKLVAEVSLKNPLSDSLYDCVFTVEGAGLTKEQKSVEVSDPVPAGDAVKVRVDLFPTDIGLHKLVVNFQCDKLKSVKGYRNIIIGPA

rat TG2 [6] = biological target: T3, rat TG2; assay: cell-based or functional assay
cynomolgus monkey TG2 [7] = biological target: T1, cynomolgus monkey TG2; assay: SPR (Biacore T200), antibody captured on anti-human IgG1 Fc chip, cynomolgus TG2 injected; Ca2+ condition not marked in this row
Experimental: as §1, §2

[8] = biological target: T2, human transglutaminase type 2 (TG2); assay: SPR (Biacore T200), antibody captured on anti-human IgG1 Fc chip, human TG2 injected; Ca2+ condition not marked in this row
Experimental: as §1, §2

[9] = biological target: T2, human transglutaminase type 2 (TG2); assay: cell-based or functional assay

B1: cAB003 chimeric anti-TG2 antibody (murine AB1 variable regions, human IgG1 and human kappa) (antibody, V domains shown)
VH: EVQLVESGGGLVKPGGSLKLSCAASGFTLSSSAMSWVRQTPDRRLEWVATISVGGGKTYYPDSVKGRFTISRDNAKNTLYLQMNSLRSEDTAMYYCAKLISLYWGQGTTLTVSS
VL: DIKMTQSPSSMYASLGERVTITCKASQDINSYLTWFQQKPGKSPKTLIYRTNRLFDGVPSRFSGSGSGQDFFLTISSLEYEDMGIYYCLQYDDFPYTFGGGTKLEIK
notes: The versions differ only in the first 7 residues; also called chimeric AB1
Binder B1 has a Kd (cynomolgus monkey TG2 [1]) of 50 pM, a koff (cynomolgus monkey TG2 [1]) of 1.2e-05 s⁻¹ and a kon (cynomolgus monkey TG2 [1]) of 240000 M⁻¹ s⁻¹. The Kd [2] was < 100 pM, the koff [2] was < 1e-05 s⁻¹ and the kon [2] was 86000 M⁻¹ s⁻¹. For the same binder, the Kd [3] was < 60 pM, the koff [3] was < 1e-05 s⁻¹ and the kon [3] was 170000 M⁻¹ s⁻¹. The Kd (cynomolgus monkey TG2 [4]) was 93 pM, the koff (cynomolgus monkey TG2 [4]) was 1.3e-05 s⁻¹ and the kon (cynomolgus monkey TG2 [4]) was 140000 M⁻¹ s⁻¹.

B2: BB7 murine monoclonal anti-TG2 antibody (antibody, V domains shown)
VH: AVQLVESGGGLVKPGGSLKLSCAASGIIFSSSAMSWVRQTPEKRLEWVATISSGGRSTYYPDSVKGRFTVSRDSAKNTLYLQMDSLRSEDTAIYYCAKLISPYWGQGTTLTVSS
VL: B1 VL with D1A, T20I, R50L, F55M, D70E, F72L, S77G, Y80H, D92V
notes: Mouse IgG from hybridoma (gamma-1 primer MHCG1, kappa); also called mBB001
B2: binds (rat TG2 [5]).

B3: DH2 murine monoclonal anti-TG2 antibody (antibody, V domains shown)
VH: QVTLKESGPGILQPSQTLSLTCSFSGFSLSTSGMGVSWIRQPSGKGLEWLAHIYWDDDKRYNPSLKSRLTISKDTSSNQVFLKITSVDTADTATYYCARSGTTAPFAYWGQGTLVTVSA
VL: QIVLTQSPAIMSASPGEKVTMTCSASSSVSYMYWYQQKPGSSPRLLIYDTSNLASGVPVRFSGSGSGTSYSLTISRMEAEDAATFYCQQWSSSPLTFGAGTKLELK
B3 was tested, and the “IC50, 3H-putrescine incorporation TG activity assay” value (rat TG2 [6]) was 0.000223 mg/ml of IgG (amount required to inhibit 1 ng of TG2).

B4: DD9 murine monoclonal anti-TG2 antibody (antibody, V domains shown)
VH: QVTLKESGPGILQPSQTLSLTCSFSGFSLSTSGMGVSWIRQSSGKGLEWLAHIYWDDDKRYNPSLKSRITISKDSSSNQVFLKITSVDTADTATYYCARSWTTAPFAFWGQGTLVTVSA
VL: B3 VL with S30D, E78G, F85Y, S91N
notes: Mouse IgG from hybridoma (gamma-2a primer MHCG2A, kappa); also called mDD9001
B4: binds (rat TG2 [5]).

B5: hBB001AA humanised BB7 antibody (BB7 RHA with BB7 RKA) (antibody, V domains shown)
VH: EVQLLESGGGLVQPGGSLRLSCAASGIIFSSSAMSWVRQAPGKGLEWVATISSGGRSTYYPDSVKGRFTVSRDSSKNTLYLQMNSLRAEDTAVYYCAKLISPYWGQGTLVTVSS
VL: DIKMTQSPSSLSASVGDRVTITCKASQDINSYLTWFQQKPGKAPKTLIYLTNRLMDGVPSRFSGSGSGQEFLLTISSLQPEDFATYYCLQYVDFPYTFGQGTKVEIK
notes: The name AA is read as heavy version RHA + kappa version RKA; also called hBB01AA
In the case of B5, the Kd (cynomolgus monkey TG2 [7]) is reported as < 30 pM, the koff (cynomolgus monkey TG2 [7]) is reported as < 1e-05 s⁻¹ and the kon (cynomolgus monkey TG2 [7]) is reported as 300000 M⁻¹ s⁻¹. For the same binder, the kon [8] was 270000 M⁻¹ s⁻¹ and the “IC50, inhibition of extracellular TG2 activity of HK2 cells (biotin cadaverine incorporation into fibronectin)” value [9] was 19800 pM.

B6: hAB004 (hAB001AE) humanised AB1 antibody, heavy chain version RHA with light chain version RKE (antibody, V domains shown)
VH: B5 VH with I27F, I28T, A49S, S53V, R56G, S57K, V70I, S74N, P102L
VL: EIVLTQSPSSLSASVGDRVTITCKASQDINSYLTWYQQKPGKAPKLLIYRTNRLFDGVPSRFSGSGSGTDFFFTISSLQPEDFGTYYCLQYDDFPYTFGGGTKLEIK
notes: Captured by anti-human IgG1 Fc in SPR
B6 was tested, and the Kd (cynomolgus monkey TG2 [7]) was 11 pM.

B7: hBB001BB humanised BB7 antibody (BB7 RHB with BB7 RKB) (antibody, V domains shown)
VH: B5 VH with I27F, I28T, A49S, V70I, S74N
VL: B5 VL with K3Q, T46S, Q69T, E70D, L72F
notes: The name BB is read as heavy version RHB + kappa version RKB
For B7, the Kd (cynomolgus monkey TG2 [7]) was 140 pM, the koff (cynomolgus monkey TG2 [7]) was 3.7e-05 s⁻¹ and the kon (cynomolgus monkey TG2 [7]) was 270000 M⁻¹ s⁻¹. For the same binder, the Kd [8] was < 40 pM, the koff [8] was < 1e-05 s⁻¹ and the kon [8] was 240000 M⁻¹ s⁻¹. The “IC50, inhibition of extracellular TG2 activity of HK2 cells (biotin cadaverine incorporation into fibronectin)” value [9] was 4900 pM.
